Assay results as given in publication PMC5053164.

B1: DORN1 extracellular domain (atDORN1-ECD; LecRK-I.9): N124N225D (protein)
parent chain: MARWLLQILIISSLHLSSVSSQQETSFVYESFLDRQNLYLDKSAIVLPSGLLQLTNASEHQMGHAFHKKPIEFSSSGPLSFSTHFVCALVPKPGFEGGHGIVFVLSPSMDFTHAESTRYLGIFNASTNGSSSYHVLAVELDTIWNPDFKDIDHNHVGIDVNSPISVAIASASYYSDMKGSNESINLLSGNPIQVWVDYEGTLLNVSVAPLEVQKPTRPLLSHPINLTELFPNRSSLFAGFSAATGTAISDQYILWWSFSIDRGSLQRLDISKLPEVPHPRAPHKKVSTLIILLPVCLAILVLAVLAGLYFRRRRKYSEVSETWEKEFDAHRFSYRSLFKATKGFSKDEFLGKGGFGEVYRGNLPQGREIAVKRVSHNGDEGVKQFVAEVVSMRCLKHRNLVPLFGYCRRKRELLLVSEYMPNGSLDEHLFDDQKPVLSWSQRLVVVKGIASALWYLHTGADQVVLHRDVKASNIMLDAEFHGRLGDFGMARFHEHGGNAATTAAVGTVGYMAPELITMGASTGTDVYAFGVFMLEVTCGRRPVEPQLQVEKRHMIKWVCECWKKDSLLDATDPRLGGKFVAEEVEMVMKLGLLCSNIVPESRPTMEQVVLYLNKNLPLPDFSPYTLGIGTFAPVLVDASSLVVSSASWSLSGPSMSSSSPNHSPYAWQSTDQPWGQTIDTKNSLHIVAEPEKPSPAVKMVTLPAEDPQSNHSSISSQRVQPVKREKRRLHQILVAFPWINKQYFKLGLPKHIVHVSLFFFLQLARL
B2: DORN1 extracellular domain (atDORN1-ECD; LecRK-I.9): N204N225D (protein)
parent chain: MARWLLQILIISSLHLSSVSSQQETSFVYESFLDRQNLYLDKSAIVLPSGLLQLTNASEHQMGHAFHKKPIEFSSSGPLSFSTHFVCALVPKPGFEGGHGIVFVLSPSMDFTHAESTRYLGIFNASTNGSSSYHVLAVELDTIWNPDFKDIDHNHVGIDVNSPISVAIASASYYSDMKGSNESINLLSGNPIQVWVDYEGTLLNVSVAPLEVQKPTRPLLSHPINLTELFPNRSSLFAGFSAATGTAISDQYILWWSFSIDRGSLQRLDISKLPEVPHPRAPHKKVSTLIILLPVCLAILVLAVLAGLYFRRRRKYSEVSETWEKEFDAHRFSYRSLFKATKGFSKDEFLGKGGFGEVYRGNLPQGREIAVKRVSHNGDEGVKQFVAEVVSMRCLKHRNLVPLFGYCRRKRELLLVSEYMPNGSLDEHLFDDQKPVLSWSQRLVVVKGIASALWYLHTGADQVVLHRDVKASNIMLDAEFHGRLGDFGMARFHEHGGNAATTAAVGTVGYMAPELITMGASTGTDVYAFGVFMLEVTCGRRPVEPQLQVEKRHMIKWVCECWKKDSLLDATDPRLGGKFVAEEVEMVMKLGLLCSNIVPESRPTMEQVVLYLNKNLPLPDFSPYTLGIGTFAPVLVDASSLVVSSASWSLSGPSMSSSSPNHSPYAWQSTDQPWGQTIDTKNSLHIVAEPEKPSPAVKMVTLPAEDPQSNHSSISSQRVQPVKREKRRLHQILVAFPWINKQYFKLGLPKHIVHVSLFFFLQLARL
B3: DORN1 extracellular domain (atDORN1-ECD; LecRK-I.9): N128N204N225D (protein)
parent chain: MARWLLQILIISSLHLSSVSSQQETSFVYESFLDRQNLYLDKSAIVLPSGLLQLTNASEHQMGHAFHKKPIEFSSSGPLSFSTHFVCALVPKPGFEGGHGIVFVLSPSMDFTHAESTRYLGIFNASTNGSSSYHVLAVELDTIWNPDFKDIDHNHVGIDVNSPISVAIASASYYSDMKGSNESINLLSGNPIQVWVDYEGTLLNVSVAPLEVQKPTRPLLSHPINLTELFPNRSSLFAGFSAATGTAISDQYILWWSFSIDRGSLQRLDISKLPEVPHPRAPHKKVSTLIILLPVCLAILVLAVLAGLYFRRRRKYSEVSETWEKEFDAHRFSYRSLFKATKGFSKDEFLGKGGFGEVYRGNLPQGREIAVKRVSHNGDEGVKQFVAEVVSMRCLKHRNLVPLFGYCRRKRELLLVSEYMPNGSLDEHLFDDQKPVLSWSQRLVVVKGIASALWYLHTGADQVVLHRDVKASNIMLDAEFHGRLGDFGMARFHEHGGNAATTAAVGTVGYMAPELITMGASTGTDVYAFGVFMLEVTCGRRPVEPQLQVEKRHMIKWVCECWKKDSLLDATDPRLGGKFVAEEVEMVMKLGLLCSNIVPESRPTMEQVVLYLNKNLPLPDFSPYTLGIGTFAPVLVDASSLVVSSASWSLSGPSMSSSSPNHSPYAWQSTDQPWGQTIDTKNSLHIVAEPEKPSPAVKMVTLPAEDPQSNHSSISSQRVQPVKREKRRLHQILVAFPWINKQYFKLGLPKHIVHVSLFFFLQLARL
B4: DORN1 extracellular domain (atDORN1-ECD; LecRK-I.9): N124N204N225D (protein)
parent chain: MARWLLQILIISSLHLSSVSSQQETSFVYESFLDRQNLYLDKSAIVLPSGLLQLTNASEHQMGHAFHKKPIEFSSSGPLSFSTHFVCALVPKPGFEGGHGIVFVLSPSMDFTHAESTRYLGIFNASTNGSSSYHVLAVELDTIWNPDFKDIDHNHVGIDVNSPISVAIASASYYSDMKGSNESINLLSGNPIQVWVDYEGTLLNVSVAPLEVQKPTRPLLSHPINLTELFPNRSSLFAGFSAATGTAISDQYILWWSFSIDRGSLQRLDISKLPEVPHPRAPHKKVSTLIILLPVCLAILVLAVLAGLYFRRRRKYSEVSETWEKEFDAHRFSYRSLFKATKGFSKDEFLGKGGFGEVYRGNLPQGREIAVKRVSHNGDEGVKQFVAEVVSMRCLKHRNLVPLFGYCRRKRELLLVSEYMPNGSLDEHLFDDQKPVLSWSQRLVVVKGIASALWYLHTGADQVVLHRDVKASNIMLDAEFHGRLGDFGMARFHEHGGNAATTAAVGTVGYMAPELITMGASTGTDVYAFGVFMLEVTCGRRPVEPQLQVEKRHMIKWVCECWKKDSLLDATDPRLGGKFVAEEVEMVMKLGLLCSNIVPESRPTMEQVVLYLNKNLPLPDFSPYTLGIGTFAPVLVDASSLVVSSASWSLSGPSMSSSSPNHSPYAWQSTDQPWGQTIDTKNSLHIVAEPEKPSPAVKMVTLPAEDPQSNHSSISSQRVQPVKREKRRLHQILVAFPWINKQYFKLGLPKHIVHVSLFFFLQLARL
B5: DORN1 extracellular domain (atDORN1-ECD; LecRK-I.9): N128N204D (protein)
parent chain: MARWLLQILIISSLHLSSVSSQQETSFVYESFLDRQNLYLDKSAIVLPSGLLQLTNASEHQMGHAFHKKPIEFSSSGPLSFSTHFVCALVPKPGFEGGHGIVFVLSPSMDFTHAESTRYLGIFNASTNGSSSYHVLAVELDTIWNPDFKDIDHNHVGIDVNSPISVAIASASYYSDMKGSNESINLLSGNPIQVWVDYEGTLLNVSVAPLEVQKPTRPLLSHPINLTELFPNRSSLFAGFSAATGTAISDQYILWWSFSIDRGSLQRLDISKLPEVPHPRAPHKKVSTLIILLPVCLAILVLAVLAGLYFRRRRKYSEVSETWEKEFDAHRFSYRSLFKATKGFSKDEFLGKGGFGEVYRGNLPQGREIAVKRVSHNGDEGVKQFVAEVVSMRCLKHRNLVPLFGYCRRKRELLLVSEYMPNGSLDEHLFDDQKPVLSWSQRLVVVKGIASALWYLHTGADQVVLHRDVKASNIMLDAEFHGRLGDFGMARFHEHGGNAATTAAVGTVGYMAPELITMGASTGTDVYAFGVFMLEVTCGRRPVEPQLQVEKRHMIKWVCECWKKDSLLDATDPRLGGKFVAEEVEMVMKLGLLCSNIVPESRPTMEQVVLYLNKNLPLPDFSPYTLGIGTFAPVLVDASSLVVSSASWSLSGPSMSSSSPNHSPYAWQSTDQPWGQTIDTKNSLHIVAEPEKPSPAVKMVTLPAEDPQSNHSSISSQRVQPVKREKRRLHQILVAFPWINKQYFKLGLPKHIVHVSLFFFLQLARL
B6: DORN1 extracellular domain (atDORN1-ECD; LecRK-I.9): N124N128N204N225D (protein)
parent chain: MARWLLQILIISSLHLSSVSSQQETSFVYESFLDRQNLYLDKSAIVLPSGLLQLTNASEHQMGHAFHKKPIEFSSSGPLSFSTHFVCALVPKPGFEGGHGIVFVLSPSMDFTHAESTRYLGIFNASTNGSSSYHVLAVELDTIWNPDFKDIDHNHVGIDVNSPISVAIASASYYSDMKGSNESINLLSGNPIQVWVDYEGTLLNVSVAPLEVQKPTRPLLSHPINLTELFPNRSSLFAGFSAATGTAISDQYILWWSFSIDRGSLQRLDISKLPEVPHPRAPHKKVSTLIILLPVCLAILVLAVLAGLYFRRRRKYSEVSETWEKEFDAHRFSYRSLFKATKGFSKDEFLGKGGFGEVYRGNLPQGREIAVKRVSHNGDEGVKQFVAEVVSMRCLKHRNLVPLFGYCRRKRELLLVSEYMPNGSLDEHLFDDQKPVLSWSQRLVVVKGIASALWYLHTGADQVVLHRDVKASNIMLDAEFHGRLGDFGMARFHEHGGNAATTAAVGTVGYMAPELITMGASTGTDVYAFGVFMLEVTCGRRPVEPQLQVEKRHMIKWVCECWKKDSLLDATDPRLGGKFVAEEVEMVMKLGLLCSNIVPESRPTMEQVVLYLNKNLPLPDFSPYTLGIGTFAPVLVDASSLVVSSASWSLSGPSMSSSSPNHSPYAWQSTDQPWGQTIDTKNSLHIVAEPEKPSPAVKMVTLPAEDPQSNHSSISSQRVQPVKREKRRLHQILVAFPWINKQYFKLGLPKHIVHVSLFFFLQLARL
B7: DORN1 extracellular domain (atDORN1-ECD; LecRK-I.9): N124N128N204D (protein)
parent chain: MARWLLQILIISSLHLSSVSSQQETSFVYESFLDRQNLYLDKSAIVLPSGLLQLTNASEHQMGHAFHKKPIEFSSSGPLSFSTHFVCALVPKPGFEGGHGIVFVLSPSMDFTHAESTRYLGIFNASTNGSSSYHVLAVELDTIWNPDFKDIDHNHVGIDVNSPISVAIASASYYSDMKGSNESINLLSGNPIQVWVDYEGTLLNVSVAPLEVQKPTRPLLSHPINLTELFPNRSSLFAGFSAATGTAISDQYILWWSFSIDRGSLQRLDISKLPEVPHPRAPHKKVSTLIILLPVCLAILVLAVLAGLYFRRRRKYSEVSETWEKEFDAHRFSYRSLFKATKGFSKDEFLGKGGFGEVYRGNLPQGREIAVKRVSHNGDEGVKQFVAEVVSMRCLKHRNLVPLFGYCRRKRELLLVSEYMPNGSLDEHLFDDQKPVLSWSQRLVVVKGIASALWYLHTGADQVVLHRDVKASNIMLDAEFHGRLGDFGMARFHEHGGNAATTAAVGTVGYMAPELITMGASTGTDVYAFGVFMLEVTCGRRPVEPQLQVEKRHMIKWVCECWKKDSLLDATDPRLGGKFVAEEVEMVMKLGLLCSNIVPESRPTMEQVVLYLNKNLPLPDFSPYTLGIGTFAPVLVDASSLVVSSASWSLSGPSMSSSSPNHSPYAWQSTDQPWGQTIDTKNSLHIVAEPEKPSPAVKMVTLPAEDPQSNHSSISSQRVQPVKREKRRLHQILVAFPWINKQYFKLGLPKHIVHVSLFFFLQLARL
B8: DORN1 extracellular domain (atDORN1-ECD; LecRK-I.9): N124N128N225D (protein)
parent chain: MARWLLQILIISSLHLSSVSSQQETSFVYESFLDRQNLYLDKSAIVLPSGLLQLTNASEHQMGHAFHKKPIEFSSSGPLSFSTHFVCALVPKPGFEGGHGIVFVLSPSMDFTHAESTRYLGIFNASTNGSSSYHVLAVELDTIWNPDFKDIDHNHVGIDVNSPISVAIASASYYSDMKGSNESINLLSGNPIQVWVDYEGTLLNVSVAPLEVQKPTRPLLSHPINLTELFPNRSSLFAGFSAATGTAISDQYILWWSFSIDRGSLQRLDISKLPEVPHPRAPHKKVSTLIILLPVCLAILVLAVLAGLYFRRRRKYSEVSETWEKEFDAHRFSYRSLFKATKGFSKDEFLGKGGFGEVYRGNLPQGREIAVKRVSHNGDEGVKQFVAEVVSMRCLKHRNLVPLFGYCRRKRELLLVSEYMPNGSLDEHLFDDQKPVLSWSQRLVVVKGIASALWYLHTGADQVVLHRDVKASNIMLDAEFHGRLGDFGMARFHEHGGNAATTAAVGTVGYMAPELITMGASTGTDVYAFGVFMLEVTCGRRPVEPQLQVEKRHMIKWVCECWKKDSLLDATDPRLGGKFVAEEVEMVMKLGLLCSNIVPESRPTMEQVVLYLNKNLPLPDFSPYTLGIGTFAPVLVDASSLVVSSASWSLSGPSMSSSSPNHSPYAWQSTDQPWGQTIDTKNSLHIVAEPEKPSPAVKMVTLPAEDPQSNHSSISSQRVQPVKREKRRLHQILVAFPWINKQYFKLGLPKHIVHVSLFFFLQLARL

Assay: expression yield of multisite mutants
Details: glycan lost; control: wild type

Protein | expression_or_secretion, percent_of_wt
B1 | decreases
B2 | decreases
B3 | decreases
B4 | decreases
B5 | decreases
B6 | decreases
B7 | decreases
B8 | decreases
